The target in the test is T1, CD19 expressed on cells (Daudi, Raji, K562-CD19) (human, UniProt P15391 20-556).
T1 chain: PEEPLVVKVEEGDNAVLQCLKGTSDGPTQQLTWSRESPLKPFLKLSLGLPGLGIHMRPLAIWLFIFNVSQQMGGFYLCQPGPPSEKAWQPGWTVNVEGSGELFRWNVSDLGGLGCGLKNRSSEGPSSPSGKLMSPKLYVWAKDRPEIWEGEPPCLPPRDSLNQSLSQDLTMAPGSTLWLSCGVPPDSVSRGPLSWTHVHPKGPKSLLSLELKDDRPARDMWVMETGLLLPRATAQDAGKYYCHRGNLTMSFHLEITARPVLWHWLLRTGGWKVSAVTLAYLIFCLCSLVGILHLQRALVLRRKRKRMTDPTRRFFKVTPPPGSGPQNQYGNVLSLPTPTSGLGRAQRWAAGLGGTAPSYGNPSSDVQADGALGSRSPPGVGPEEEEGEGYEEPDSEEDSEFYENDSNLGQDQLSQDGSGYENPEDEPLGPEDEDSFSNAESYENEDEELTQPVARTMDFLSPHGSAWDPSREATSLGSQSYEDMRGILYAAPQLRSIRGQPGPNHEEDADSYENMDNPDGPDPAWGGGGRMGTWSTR
As to the kind of experiment: flow cytometry cell binding. On the technique in general: A flow cytometer gives signals particle by particle.

Among the data in patent US20240148828A1 (published 2024) are EC50 values, retold here.

In general, EC50 refers to the midpoint of the concentration-response curve.

B1: BTN2A1/3A1-Fc-CD19scFv heterodimeric protein (Fc fusion)
chain 1: QFIVVGPTDPILATVGENTTLRCHLSPEKNAEDMEVRWFRSQFSPAVFVYKGGRERTEEQMEEYRGRTTFVSKDISRGSVALVIHNITAQENGTYRCYFQEGRSYDEAILHLVVAGLGSKPLISMRGHEDGGIRLECISRGWYPKPLTVWRDPYGGVAPALKEVSMPDADGLFMVTTAVIIRDKSVRNMSCSINNTLLGQKKESVIFIPESFMPSVSPCAGSGSRKGGKRGSKYGPPCPPCPAPEFLGGPSVFLFPPKPKDQLMISRTPEVTCVVVDVSQEDPEVQFNWYVDGVEVHNAKTKPREEQFNSTYRVVSVLTVLHQDWLSGKEYKCKVSSKGLPSSIEKTISNATGQPREPQVYTLPPSQEEMTKNQVSLTCLVKGFYPSDIAVEWESNGQPENNYKTTPPVLDSDGSFFLYSRLTVDKSRWQEGNVFSCSVLHEALHNHYTQKSLSLSLGKDEGGEDGSDIQMTQTTSSLSASLGDRVTISCRASQDISKYLNWYQQKPDGTVKLLIYHTSRLHSGVPSRFSGSGSGTDYSLTISNLEQEDIATYFCQQGNTLPYTFGGGTKLEITGGGSGGGSGGGSEVKLQESGPGLVAPSQSLSVTCTVSGVSLPDYGVSWIRQPPRKGLEWLGVIWGSETTYYNSALKSRLTIIKDNSKSQVFLKMNSLQTDDTAIYYCAKHYYYGGSYAMDYWGQGTSVTVSS
chain 2: not shown
In the case of B1, the EC50 was 5 nM.
